{
  "source": "the supplement of paper PMC10567573",
  "parents": {"B1": {"name": "C10orf62 (parent)", "chain": "RALEEVEMKLQKNFLTQRENTIAG"}, "B2": {"name": "DFFB (parent)", "chain": "TLVEAIKEQDGREVDWEYFYGLLF"}},
  "data": [
    {"variants_of": "B1", "assay": "protein stability index of a GFP-peptide fusion (GPS, HEK-293T) (PSI 1-6); higher = more stable", "conditions": "c terminus: a fixed tail appended", "values": [
      {"variant": "RALEEVEMKLQKNFLTQRENTIAN", "note": "[G24N]", "protein stability index": 3.45},
      {"variant": "RALEEVEMKLQKNFLTQRENTIAH", "note": "[G24H]", "protein stability index": 3.07},
      {"variant": "RALEEVEMKLQKNFLTQRENTIAF", "note": "[G24F]", "protein stability index": 2.37},
      {"variant": "RALEEVEMKLQKNFLTQRENTIAI", "note": "[G24I]", "protein stability index": 2.31},
      {"variant": "RALEEVEMKLQKNFLTQRENTIAS", "note": "[G24S]", "protein stability index": 3.43},
      {"variant": "RALEEVEMKLQKNFLTQRENTIAT", "note": "[G24T]", "protein stability index": 3.76},
      {"variant": "RALEEVEMKLQKNFLTQRENTIAQ", "note": "[G24Q]", "protein stability index": 3.6},
      {"variant": "RALEEVEMKLQKNFLTQRENTIAP", "note": "[G24P]", "protein stability index": 3.71},
      {"variant": "RALEEVEMKLQKNFLTQRENTIAD", "note": "[G24D]", "protein stability index": 4.37},
      {"variant": "RALEEVEMKLQKNFLTQRENTIAE", "note": "[G24E]", "protein stability index": 4.04},
      {"variant": "RALEEVEMKLQKNFLTQRENTIAV", "note": "[G24V]", "protein stability index": 2.85},
      {"variant": "RALEEVEMKLQKNFLTQRENTIAL", "note": "[G24L]", "protein stability index": 2.65},
      {"variant": "RALEEVEMKLQKNFLTQRENTIAR", "note": "[G24R]", "protein stability index": 3.5},
      {"variant": "RALEEVEMKLQKNFLTQRENTIAK", "note": "[G24K]", "protein stability index": 4.19},
      {"variant": "RALEEVEMKLQKNFLTQRENTIAW", "note": "[G24W]", "protein stability index": 3.48},
      {"variant": "RALEEVEMKLQKNFLTQRENTIAM", "note": "[G24M]", "protein stability index": 3.08},
      {"variant": "RALEEVEMKLQKNFLTQRENTIAY", "note": "[G24Y]", "protein stability index": 2.18}
    ]},
    {"variants_of": "B2", "assay": "protein stability index of a GFP-peptide fusion (GPS, HEK-293T) (PSI 1-6); higher = more stable", "conditions": "c terminus: a fixed tail appended", "values": [
      {"variant": "TLVEAIKEVDGREVDWEYFYGLLF", "note": "[Q9V]", "protein stability index": 1.24},
      {"variant": "TLVEAIKETDGREVDWEYFYGLLF", "note": "[Q9T]", "protein stability index": 2},
      {"variant": "TLVEAIKEDDGREVDWEYFYGLLF", "note": "[Q9D]", "protein stability index": 1.97},
      {"variant": "TLVEAIKEADGREVDWEYFYGLLF", "note": "[Q9A]", "protein stability index": 1.37},
      {"variant": "TLVEAIKESDGREVDWEYFYGLLF", "note": "[Q9S]", "protein stability index": 1.66},
      {"variant": "TLVEAIKEKDGREVDWEYFYGLLF", "note": "[Q9K]", "protein stability index": 1.55},
      {"variant": "TLVEAIKERDGREVDWEYFYGLLF", "note": "[Q9R]", "protein stability index": 2.27},
      {"variant": "TLVEAIKENDGREVDWEYFYGLLF", "note": "[Q9N]", "protein stability index": 1.57},
      {"variant": "TLVEAIKEEDGREVDWEYFYGLLF", "note": "[Q9E]", "protein stability index": 2.26},
      {"variant": "TLVEAIKELDGREVDWEYFYGLLF", "note": "[Q9L]", "protein stability index": 3.05},
      {"variant": "TLVEAIKEWDGREVDWEYFYGLLF", "note": "[Q9W]", "protein stability index": 2.59},
      {"variant": "TLVEAIKEHDGREVDWEYFYGLLF", "note": "[Q9H]", "protein stability index": 2.33},
      {"variant": "TLVEAIKEYDGREVDWEYFYGLLF", "note": "[Q9Y]", "protein stability index": 1.08},
      {"variant": "TLVEAIKEPDGREVDWEYFYGLLF", "note": "[Q9P]", "protein stability index": 3},
      {"variant": "TLVEAIKEIDGREVDWEYFYGLLF", "note": "[Q9I]", "protein stability index": 1.87},
      {"variant": "TLVEAIKEMDGREVDWEYFYGLLF", "note": "[Q9M]", "protein stability index": 1.74},
      {"variant": "TLVEAIKEFDGREVDWEYFYGLLF", "note": "[Q9F]", "protein stability index": 2.73},
      {"variant": "TLVEAIKEGDGREVDWEYFYGLLF", "note": "[Q9G]", "protein stability index": 1.26},
      {"variant": "TLCEAIKEQDGREVDWEYFYGLLF", "note": "[V3C]", "protein stability index": 1.94},
      {"variant": "TLIEAIKEQDGREVDWEYFYGLLF", "note": "[V3I]", "protein stability index": 3.34},
      {"variant": "TLTEAIKEQDGREVDWEYFYGLLF", "note": "[V3T]", "protein stability index": 2.53},
      {"variant": "TLMEAIKEQDGREVDWEYFYGLLF", "note": "[V3M]", "protein stability index": 2.28},
      {"variant": "TLQEAIKEQDGREVDWEYFYGLLF", "note": "[V3Q]", "protein stability index": 1.88},
      {"variant": "TLKEAIKEQDGREVDWEYFYGLLF", "note": "[V3K]", "protein stability index": 2.88},
      {"variant": "TLDEAIKEQDGREVDWEYFYGLLF", "note": "[V3D]", "protein stability index": 2.65},
      {"variant": "TLHEAIKEQDGREVDWEYFYGLLF", "note": "[V3H]", "protein stability index": 2.16},
      {"variant": "TLAEAIKEQDGREVDWEYFYGLLF", "note": "[V3A]", "protein stability index": 1.95},
      {"variant": "TLGEAIKEQDGREVDWEYFYGLLF", "note": "[V3G]", "protein stability index": 1.58},
      {"variant": "TLYEAIKEQDGREVDWEYFYGLLF", "note": "[V3Y]", "protein stability index": 1.39},
      {"variant": "TLEEAIKEQDGREVDWEYFYGLLF", "note": "[V3E]", "protein stability index": 2.86},
      {"variant": "TLFEAIKEQDGREVDWEYFYGLLF", "note": "[V3F]", "protein stability index": 2},
      {"variant": "TLLEAIKEQDGREVDWEYFYGLLF", "note": "[V3L]", "protein stability index": 2.22},
      {"variant": "TLREAIKEQDGREVDWEYFYGLLF", "note": "[V3R]", "protein stability index": 2.23},
      {"variant": "TLSEAIKEQDGREVDWEYFYGLLF", "note": "[V3S]", "protein stability index": 3.22},
      {"variant": "TLPEAIKEQDGREVDWEYFYGLLF", "note": "[V3P]", "protein stability index": 2.16},
      {"variant": "TLNEAIKEQDGREVDWEYFYGLLF", "note": "[V3N]", "protein stability index": 2.21},
      {"variant": "TLWEAIKEQDGREVDWEYFYGLLF", "note": "[V3W]", "protein stability index": 1.76},
      {"variant": "TLVEAIKFQDGREVDWEYFYGLLF", "note": "[E8F]", "protein stability index": 1.1},
      {"variant": "TLVEAIKGQDGREVDWEYFYGLLF", "note": "[E8G]", "protein stability index": 2.37},
      {"variant": "TLVEAIKIQDGREVDWEYFYGLLF", "note": "[E8I]", "protein stability index": 1.3},
      {"variant": "TLVEAIKNQDGREVDWEYFYGLLF", "note": "[E8N]", "protein stability index": 2.53},
      {"variant": "TLVEAIKAQDGREVDWEYFYGLLF", "note": "[E8A]", "protein stability index": 1.88},
      {"variant": "TLVEAIKLQDGREVDWEYFYGLLF", "note": "[E8L]", "protein stability index": 2.82},
      {"variant": "TLVEAIKMQDGREVDWEYFYGLLF", "note": "[E8M]", "protein stability index": 1.62},
      {"variant": "TLVEAIKKQDGREVDWEYFYGLLF", "note": "[E8K]", "protein stability index": 1.83},
      {"variant": "TLVEAIKSQDGREVDWEYFYGLLF", "note": "[E8S]", "protein stability index": 1.72},
      {"variant": "TLVEAIKQQDGREVDWEYFYGLLF", "note": "[E8Q]", "protein stability index": 1.43},
      {"variant": "TLVEAIKHQDGREVDWEYFYGLLF", "note": "[E8H]", "protein stability index": 2.47},
      {"variant": "TLVEAIKRQDGREVDWEYFYGLLF", "note": "[E8R]", "protein stability index": 2.67},
      {"variant": "TLVEAIKYQDGREVDWEYFYGLLF", "note": "[E8Y]", "protein stability index": 2.48},
      {"variant": "TLVEAIKPQDGREVDWEYFYGLLF", "note": "[E8P]", "protein stability index": 2.38},
      {"variant": "TLVEAIKVQDGREVDWEYFYGLLF", "note": "[E8V]", "protein stability index": 1.66},
      {"variant": "TLVEAIKDQDGREVDWEYFYGLLF", "note": "[E8D]", "protein stability index": 2.08},
      {"variant": "TLVEAIKEQKGREVDWEYFYGLLF", "note": "[D10K]", "protein stability index": 2.12},
      {"variant": "TLVEAIKEQAGREVDWEYFYGLLF", "note": "[D10A]", "protein stability index": 2.01},
      {"variant": "TLVEAIKEQCGREVDWEYFYGLLF", "note": "[D10C]", "protein stability index": 1.99},
      {"variant": "TLVEAIKEQNGREVDWEYFYGLLF", "note": "[D10N]", "protein stability index": 1.86},
      {"variant": "TLVEAIKEQFGREVDWEYFYGLLF", "note": "[D10F]", "protein stability index": 1.91},
      {"variant": "TLVEAIKEQMGREVDWEYFYGLLF", "note": "[D10M]", "protein stability index": 1.35},
      {"variant": "TLVEAIKEQPGREVDWEYFYGLLF", "note": "[D10P]", "protein stability index": 2.32},
      {"variant": "TLVEAIKEQTGREVDWEYFYGLLF", "note": "[D10T]", "protein stability index": 1.59},
      {"variant": "TLVEAIKEQQGREVDWEYFYGLLF", "note": "[D10Q]", "protein stability index": 1.71},
      {"variant": "TLVEAIKEQRGREVDWEYFYGLLF", "note": "[D10R]", "protein stability index": 1.41},
      {"variant": "TLVEAIKEQHGREVDWEYFYGLLF", "note": "[D10H]", "protein stability index": 1.99},
      {"variant": "TLVEAIKEQSGREVDWEYFYGLLF", "note": "[D10S]", "protein stability index": 2.37},
      {"variant": "TLVEAIKEQLGREVDWEYFYGLLF", "note": "[D10L]", "protein stability index": 1.91},
      {"variant": "TLVEAIKEQGGREVDWEYFYGLLF", "note": "[D10G]", "protein stability index": 2.66},
      {"variant": "TLVEAIKEQVGREVDWEYFYGLLF", "note": "[D10V]", "protein stability index": 1.73},
      {"variant": "TLVEEIKEQDGREVDWEYFYGLLF", "note": "[A5E]", "protein stability index": 2.29},
      {"variant": "TLVENIKEQDGREVDWEYFYGLLF", "note": "[A5N]", "protein stability index": 2.11},
      {"variant": "TLVEHIKEQDGREVDWEYFYGLLF", "note": "[A5H]", "protein stability index": 1.98},
      {"variant": "TLVEKIKEQDGREVDWEYFYGLLF", "note": "[A5K]", "protein stability index": 1.89},
      {"variant": "TLVEYIKEQDGREVDWEYFYGLLF", "note": "[A5Y]", "protein stability index": 2.73},
      {"variant": "TLVERIKEQDGREVDWEYFYGLLF", "note": "[A5R]", "protein stability index": 2.29},
      {"variant": "TLVEQIKEQDGREVDWEYFYGLLF", "note": "[A5Q]", "protein stability index": 2.4},
      {"variant": "TLVEIIKEQDGREVDWEYFYGLLF", "note": "[A5I]", "protein stability index": 1.36},
      {"variant": "TLVEPIKEQDGREVDWEYFYGLLF", "note": "[A5P]", "protein stability index": 2.74}
    ]}
  ]
}
